In US20070042353:

Experiments:
[1] = biological target: HCV NS5B531 (Hepatitis C virus (BK strain, genotype 1b)) (UniProt P26663); conditions: [3H]UTP incorporation, 5 mM MgCl2, 50 mM NaCl, pH 7.5, 25 C, 90 min
[2] = biological target: HCV NS5B536 (Hepatitis C virus (BK strain, genotype 1b)) (UniProt P26663); conditions: [3H]UTP incorporation, 5 mM MgCl2, 50 mM NaCl, pH 7.5, 25 C, 90 min
[3] = biological target: HCV NS5B544 (Hepatitis C virus (BK strain, genotype 1b)) (UniProt P26663); conditions: [3H]UTP incorporation, 5 mM MgCl2, 50 mM NaCl, pH 7.5, 25 C, 90 min
[4] = biological target: HCV NS5B552 (Hepatitis C virus (BK strain, genotype 1b)) (UniProt P26663); conditions: [3H]UTP incorporation, 5 mM MgCl2, 50 mM NaCl, pH 7.5, 25 C, 90 min
[5] = biological target: HCV NS5B570 (Hepatitis C virus (BK strain, genotype 1b)) (UniProt P26663); conditions: [3H]UTP incorporation, 5 mM MgCl2, 50 mM NaCl, pH 7.5, 25 C, 90 min
[6] = biological target: HCV NS5B591 (full length) (Hepatitis C virus (BK strain, genotype 1b)) (UniProt P26663); conditions: reference enzyme; [3H]UTP incorporation, 5 mM MgCl2, 50 mM NaCl, pH 7.5, 25 C, 90 min

Substance: HCV NS5B 3' end + 3'UTR (polyU and 3'X) template RNA, about 450 nt
- activity [1]: 2150 % of NS5B591
- activity [2]: 2110 % of NS5B591
- activity [3]: 2010 % of NS5B591
- activity [4]: 147 % of NS5B591
- activity [5]: 3 % of NS5B591
- activity [6]: 100 % of NS5B591
